No end group written: not given here.
Molecular target: human PAC1 receptor with 3 hemagglutinin (HA) tags, expressed in Chinese Hamster Ovary (CHO) cells (human), P41586
Assay: cell-based or functional assay

Chain of human PAC1 receptor with 3 hemagglutinin (HA) tags, expressed in Chinese Hamster Ovary (CHO) cells (human), P41586 (P41586 21-468): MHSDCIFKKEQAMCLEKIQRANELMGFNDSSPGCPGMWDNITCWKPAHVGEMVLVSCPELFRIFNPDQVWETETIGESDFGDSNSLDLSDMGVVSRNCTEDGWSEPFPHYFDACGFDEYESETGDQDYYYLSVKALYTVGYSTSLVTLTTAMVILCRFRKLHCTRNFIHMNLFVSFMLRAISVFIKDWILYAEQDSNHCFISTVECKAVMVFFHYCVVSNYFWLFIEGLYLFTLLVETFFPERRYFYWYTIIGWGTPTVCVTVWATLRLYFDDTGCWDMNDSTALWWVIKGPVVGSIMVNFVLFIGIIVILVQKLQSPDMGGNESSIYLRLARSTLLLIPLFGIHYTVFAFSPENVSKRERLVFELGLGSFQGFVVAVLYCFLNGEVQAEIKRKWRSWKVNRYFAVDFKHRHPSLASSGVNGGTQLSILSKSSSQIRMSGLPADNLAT

FTDSYSRYRKQMAVKKYLAAVLGKRYKQRVKNY-NH2 [PACAP6-38] showed an IC50 (nM), antagonist mode (variable concentration) versus 5 nM PACAP1-27, calcium flux (FLIPR), PAC1-CHO cells greater than 333 nM, an IMax (%), antagonist mode (variable concentration) versus 5 nM PACAP1-27; ( )=% inhibition at highest concentration of 78.8% and a pA2 (nM), antagonist mode (fixed concentration), Gaddum/Schild EC50 shift of PACAP1-27 curves, calcium flux (FLIPR), PAC1-CHO cells of 201 nM.

HSDGIFTDSYSRYRKQMAVKKYLAAVL-NH2 [PACAP1-27] showed an EMax (%), calcium flux (FLIPR), agonist mode, PAC1-CHO cells of 100%.
